Protein stability index data for 37 sequences are collected here from the supplement of paper PMC9732359.

This data set is described as follows: protein stability index of a GFP-peptide fusion (yeast GPS) (PSI 1-4); higher = more stable; sorted into four equal gates, so the index is relative within each strain. The procedure, abridged: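 For each peptide, the protein stability index sums the read frequency in every gate after multiplying it by the gate number. Read frequencies came from plasmids that were PCR-amplified from each gate and Illumina-sequenced, with reads assigned to strains by barcodes. The gates were four equal bins of GFP/Cherry fluorescence ratio applied to mid-log yeast in leucine-free medium carrying a pooled library of tiled 17-residue yeast protein peptides fused downstream of GFP on a Cherry-expressing plasmid.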

± gives the uncertainty stated by the source.

Consider DMLTWVDSNLPDDEKFT [RPC40], for which the protein stability index (doa10∆) stood at 2.92 ± 0.074, the protein stability index (pdr5∆) is 3.14 ± 0.063, the protein stability index (san1∆) is 2.56 ± 0.16 and the protein stability index (ubr1∆) stood at 3.26 ± 0.074.

On to EIFIRCNNVLYIRELPN [SMX3], for which the protein stability index by setting is: (pdr5∆) 1.75 ± 0.18; (san1∆) 1.53 ± 0.12; (ubr1∆) 1.48 ± 0.12.

Regarding ERDTFSDFTFPEYYSTA [DIS3], the protein stability index stood at 1.66 ± 0.082 (doa10∆), 1.73 ± 0.082 (pdr5∆), 2.15 ± 0.17 (san1∆) and 1.64 ± 0.14 (ubr1∆).

Take EYNEDSRLCTPIPVQGE [RPN13]: the protein stability index runs as follows: (san1∆) 2.27 ± 0.14; (ubr1∆) 3.11 ± 0.28.

On to PQYNMNMGMNNMNNGGK [PGD1], for which the protein stability index reads like this: (doa10∆) 3.42 ± 0.21; (pdr5∆) 3.48 ± 0.19; (san1∆) 3.16 ± 0.11; (ubr1∆) 3.24 ± 0.083.

Consider KSKSSLDGKFSLFHTAV [RPN2], for which the protein stability index (doa10∆) was 2.86 ± 0.096, the protein stability index (pdr5∆) came to 2.8 ± 0.072, the protein stability index (san1∆) turned out to be 2.86 ± 0.067 and the protein stability index (ubr1∆) was 2.77 ± 0.067.

As for LIESGIGTHHAGLTRSD [BRR2], the protein stability index runs as follows: (doa10∆) 3.31 ± 0.095; (pdr5∆) 3.5 ± 0.13; (san1∆) 2.82 ± 0.1; (ubr1∆) 3.43 ± 0.062.

For DVQVDAEEKREAVIDEK [ITC1], the protein stability index runs as follows: (pdr5∆) 2.32 ± 0.18; (ubr1∆) 2.6 ± 0.13.

With NTSESLLVDIQKYNQIQ [SMC2], the protein stability index is, setting by setting: (doa10∆) 1.71 ± 0.07; (pdr5∆) 1.84 ± 0.066; (san1∆) 1.66 ± 0.15; (ubr1∆) 1.68 ± 0.048.

Consider VAIQQGDIKPEFSPRLH [YML103C/NUP188], for which the protein stability index was 2.45 ± 0.11 (doa10∆), 2.84 ± 0.096 (pdr5∆), 3.07 ± 0.099 (san1∆) and 2.83 ± 0.068 (ubr1∆).

Consider SGTSVFEVEMILMQQQM [SRP54], for which the protein stability index reads like this: (doa10∆) 3.3 ± 0.084; (pdr5∆) 3.23 ± 0.071; (san1∆) 3.18 ± 0.07; (ubr1∆) 3.22 ± 0.098.

In the case of EPAIEEENGDSIKEHST [MED1], the protein stability index (doa10∆) turned out to be 3.32 ± 0.19, the protein stability index (san1∆) stood at 3.23 ± 0.14 and the protein stability index (ubr1∆) is 3.56 ± 0.14.

With IETEFLLFTVKLKGLMK [IRR1], the protein stability index (doa10∆) is 3.12 ± 0.14, the protein stability index (pdr5∆) was determined as 3.06 ± 0.22, the protein stability index (san1∆) worked out at 2.98 ± 0.12 and the protein stability index (ubr1∆) turned out to be 3.28 ± 0.12.

Take ARERKTATYNDNMSEEQ [SNF2]: the protein stability index was determined as 3.13 ± 0.11 (doa10∆), 2.91 ± 0.11 (pdr5∆), 3.46 ± 0.11 (san1∆) and 3.22 ± 0.085 (ubr1∆).

In the case of TTDKNTTDDKSMDTKKK [BRN1], the protein stability index runs as follows: (doa10∆) 3.51 ± 0.1; (pdr5∆) 3.51 ± 0.084; (san1∆) 3.61 ± 0.039; (ubr1∆) 3.33 ± 0.053.

Turning to LSIAFENGDYAACEKLL [RPN12], the protein stability index is, setting by setting: (doa10∆) 3.13 ± 0.17; (pdr5∆) 3 ± 0.12; (san1∆) 3.16 ± 0.077; (ubr1∆) 3.24 ± 0.12.

On to AAIWTLCKTKMVCETDV [RPO21], for which the protein stability index stood at 1.55 ± 0.059 (doa10∆), 1.69 ± 0.057 (pdr5∆), 1.44 ± 0.1 (san1∆) and 1.47 ± 0.034 (ubr1∆).

Take KLSNIWMQRQLIKGDAG [SRB2]: the protein stability index was 2.93 ± 0.23 (doa10∆), 1.16 ± 0.14 (pdr5∆) and 1.25 ± 0.26 (ubr1∆).

On to CSPKLPVEKVQRIAKND [DLS1], for which the protein stability index was 2.86 ± 0.29 (doa10∆), 3.32 ± 0.12 (pdr5∆), 3.17 ± 0.13 (san1∆) and 3.4 ± 0.12 (ubr1∆).

As to EDVALNEQVKKFFLNNV [NAS6], the protein stability index was 2.64 ± 0.047 (doa10∆), 2.5 ± 0.058 (pdr5∆), 2.44 ± 0.051 (san1∆) and 2.88 ± 0.042 (ubr1∆).

Regarding MGKSHGYRSRTRYMFQR [RPL21A], the protein stability index is 3.15 ± 0.094 (doa10∆), 3.25 ± 0.093 (pdr5∆), 3.3 ± 0.056 (san1∆) and 3.32 ± 0.055 (ubr1∆).

Regarding GLTTVWLLSALGNSIVK [REC8], the protein stability index by setting is: (doa10∆) 1.61 ± 0.085; (pdr5∆) 2.31 ± 0.075; (san1∆) 2.13 ± 0.14; (ubr1∆) 1.77 ± 0.12.

Take RRRAFKRSQKKHKKKHL [RPB4]: the protein stability index (doa10∆) is 3.16 ± 0.091, the protein stability index (pdr5∆) came out at 3.1 ± 0.078, the protein stability index (san1∆) stood at 3.13 ± 0.057 and the protein stability index (ubr1∆) stood at 3.46 ± 0.077.

In the case of TEGPSDKKLNLNLPLQF [SNF12], the protein stability index by setting is: (doa10∆) 3.12 ± 0.1; (pdr5∆) 3.31 ± 0.093; (san1∆) 3.31 ± 0.091; (ubr1∆) 2.87 ± 0.11.

For the sequence LLQLIQSQPQEKFSEKM [ECM29], the protein stability index was 2.49 ± 0.098 (doa10∆), 2.02 ± 0.098 (pdr5∆), 2.46 ± 0.093 (san1∆) and 2.47 ± 0.071 (ubr1∆).

Sequence KTFNKIQSQVFESLYNS [BRR2] yielded a protein stability index (doa10∆) of 1.57 ± 0.061, a protein stability index (pdr5∆) of 2.04 ± 0.064, a protein stability index (san1∆) of 1.25 ± 0.12 and a protein stability index (ubr1∆) of 1.73 ± 0.054.

As to VPVRKFKGNNGVVVLRD [RPN2], the protein stability index (pdr5∆) worked out at 2.88 ± 0.18.

Consider LTLLERKWVIFITKHLP [NUT1], for which the protein stability index was determined as 2.59 ± 0.089 (doa10∆), 1.68 ± 0.064 (pdr5∆), 1.45 ± 0.13 (san1∆) and 2.57 ± 0.079 (ubr1∆).

For EVTKEEDIIANYASVYP [RRP43], the protein stability index was determined as 2.77 ± 0.07 (doa10∆), 2.95 ± 0.057 (pdr5∆), 3.06 ± 0.094 (san1∆) and 3.06 ± 0.055 (ubr1∆).

For VPSTTNVNMTVNTMGTG [MED6], the protein stability index is 3.23 ± 0.3 (doa10∆), 3.37 ± 0.11 (pdr5∆), 2.91 ± 0.17 (san1∆) and 2.61 ± 0.13 (ubr1∆).

Consider QQQLVNQMKVAPIPKQL [GAL11], for which the protein stability index was 2.94 ± 0.046 (doa10∆), 2.96 ± 0.041 (pdr5∆), 2.974 ± 0.026 (san1∆) and 2.63 ± 0.038 (ubr1∆).

In turn, ILYYDVLFITPDIVGHE [BRR2] had a protein stability index (doa10∆) of 2.29 ± 0.058, a protein stability index (pdr5∆) of 2.49 ± 0.052, a protein stability index (san1∆) of 2.61 ± 0.053 and a protein stability index (ubr1∆) of 2.84 ± 0.057.

Take AFSYPRMYEEASGKEVE [RPN2]: the protein stability index is, setting by setting: (doa10∆) 2.66 ± 0.09; (pdr5∆) 1.34 ± 0.082; (san1∆) 1.28 ± 0.11; (ubr1∆) 1.35 ± 0.059.

Consider VLEKKTRQASDLASSKE [RPN5], for which the protein stability index by setting is: (doa10∆) 3.38 ± 0.23; (pdr5∆) 3.41 ± 0.15; (ubr1∆) 2.97 ± 0.24.

In the case of HDELDMNECIADQDMED [ESC2], the protein stability index reads like this: (doa10∆) 3.22 ± 0.092; (pdr5∆) 2.64 ± 0.11; (san1∆) 2.87 ± 0.07; (ubr1∆) 2.97 ± 0.074.

Regarding RQQAYKTAQTLDENLNS [YJL041W/NSP1], the protein stability index was 2.84 ± 0.078 (doa10∆), 2.76 ± 0.079 (pdr5∆), 3.12 ± 0.067 (san1∆) and 2.8 ± 0.05 (ubr1∆).

On to DVMDELITSSARKELPI [SIR3], for which the protein stability index (pdr5∆) was 2.26 ± 0.13, the protein stability index (san1∆) amounted to 2.7 ± 0.27 and the protein stability index (ubr1∆) came out at 2.42 ± 0.18.
